Measured values: patent US20210301018A1 (ITABMED HK, published 2021)

T1: human CD19 on cells (human B lymphocytes; Raji, Daudi and Reh tumor cells) (human, UniProt P15391 20-556)
T1 sequence (looked up): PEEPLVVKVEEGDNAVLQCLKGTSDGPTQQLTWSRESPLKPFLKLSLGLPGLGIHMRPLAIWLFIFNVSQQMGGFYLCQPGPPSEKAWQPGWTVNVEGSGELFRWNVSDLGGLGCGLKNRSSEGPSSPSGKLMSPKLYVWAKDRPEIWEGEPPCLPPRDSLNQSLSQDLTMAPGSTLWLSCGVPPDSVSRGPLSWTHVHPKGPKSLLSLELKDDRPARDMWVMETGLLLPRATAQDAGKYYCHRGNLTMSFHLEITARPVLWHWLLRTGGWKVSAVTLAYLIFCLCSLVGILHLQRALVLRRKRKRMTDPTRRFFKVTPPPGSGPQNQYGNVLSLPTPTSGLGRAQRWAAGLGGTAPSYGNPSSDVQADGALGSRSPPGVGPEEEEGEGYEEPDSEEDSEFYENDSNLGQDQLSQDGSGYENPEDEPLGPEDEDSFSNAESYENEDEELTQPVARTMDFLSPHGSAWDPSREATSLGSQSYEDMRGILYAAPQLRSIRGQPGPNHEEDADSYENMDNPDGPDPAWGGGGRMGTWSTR

T2: cynomolgus monkey CD19 on cynomolgus monkey B lymphocytes (cynoPBMC) (cynomolgus monkey, UniProt A0A2K5W8L9 20-557)
T2 sequence: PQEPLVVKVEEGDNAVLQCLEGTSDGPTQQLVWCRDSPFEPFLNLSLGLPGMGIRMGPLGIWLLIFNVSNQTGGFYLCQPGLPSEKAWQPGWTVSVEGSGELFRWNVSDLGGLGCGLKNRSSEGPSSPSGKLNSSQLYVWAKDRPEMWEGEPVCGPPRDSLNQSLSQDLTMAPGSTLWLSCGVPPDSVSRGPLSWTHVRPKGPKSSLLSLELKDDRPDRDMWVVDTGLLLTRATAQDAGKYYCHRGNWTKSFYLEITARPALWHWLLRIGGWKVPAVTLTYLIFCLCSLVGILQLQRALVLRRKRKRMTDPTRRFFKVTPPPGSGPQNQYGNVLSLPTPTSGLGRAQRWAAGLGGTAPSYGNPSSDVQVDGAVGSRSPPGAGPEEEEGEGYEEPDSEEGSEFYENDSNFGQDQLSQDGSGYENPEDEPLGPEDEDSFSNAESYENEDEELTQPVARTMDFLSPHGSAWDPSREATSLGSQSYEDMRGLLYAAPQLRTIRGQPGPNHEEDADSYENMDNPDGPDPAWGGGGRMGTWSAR


Assays:
Experiment in all cases: cell-based or functional assay
[1] = target: T1, human CD19 on cells (human B …)
[2] = target: T2, cynomolgus monkey CD19 on cynomolgus …
[3] = target: T1, human CD19 on cells (human B …); remark: listed apart in the source
[4] = target: T2, cynomolgus monkey CD19 on cynomolgus …; remark: listed apart in the source

Binder	EC50 of CD19×CD3 BSAP mediated PBMC cytotoxicity against autologous B cells (human PBMC) [1] [ng/mL]	EC50 of CD19×CD3 BSAP mediated PBMC cytotoxicity against autologous B cells (cynomolgus monkey PBMC) [2] [ng/mL]	cell killing activity relative to ITAB2003 (human PBMC against autologous B cells) [3] [fold]	cell killing activity relative to ITAB2003 (cynomolgus monkey PBMC against autologous B cells) [4] [fold]	EC50 of CD19×CD3 BSAP mediated human PBMC cytotoxicity against Raji tumor cells [3] [ng/mL]
CD19×CD3 bispecific antigen binding protein ITAB2006 (bispecific antibody) EVQLVESGGGLVQPGGSLRLSCAASGFTFNTYAMNWVRQAPGKGLEWVARIRSKYNNYATYYADSVKDRFTISRDDSKNTLYLQMNSLRAEDTAVYYCVRHGNFGNSYVSWFAYWGQGTMVTVSSGGGGSGGGGSGGGGSQAVVTQEPSLTVSPGGTVTLTCRSSTGAVTTSNYANWVQQKPGQAPRGLIGGTNKRAPGTPARFSGSLLGGKAALTLSGVQPEDEAEYYCALWYSNLWVFGGGTKLTVLGRAGGGGAGGGGQVQLVQSGPELIKPGGSVKMSCKASGYTFTSYVMHWVRQKPGQGLEWIGYINPYNDGTKYNEKFKGRATLTSDKSSSTAYMELSSLRSEDSAVYYCARGTYYYGSRVFDYWGQGTTVTVSSASTKGPSVFPLAPSSKSTSGGTAALGCLVKDYFPEPVTVSWNSGALTSGVHTFPAVLQSSGLYSLSSVVTVPSSSLGTQTYICNVNHKPSNTKVDKRVEPKSCPPCGGGGSHHHHHH light: DVVMTQSPSSIPVTLGESVSISCRSSKSLQNVNGNTYLYWFQQRPGQSPQLLIYRMSNLNSGVPDRFSGSGSGTDFTLRISGVEPEDVGVYYCMQHLEYPITFGAGTKLEIKRTVAAPSVFIFPPSDEQLKSGTASVVCLLNNFYPREAKVQWKVDNALQSGNSQESVTEQDSKDSTYSLSSTLTLSKADYEKHKVYACEVTHQGLSSPVTKSFNRGECPPCS	0.2	18.5	≥ 7	≥ 62	
CD19×CD3 bispecific antigen binding protein ITAB2003 (bispecific antibody) EVQLVESGGGLVQPGGSLRLSCAASGFTFNTYAMNWVRQAPGKGLEWVARIRSKYNNYATYYADSVKDRFTISRDDSKNTLYLQMNSLRAEDTAVYYCVRHGNFGNSYVSWFAYWGQGTMVTVSSGGGGSGGGGSGGGGSQAVVTQEPSLTVSPGGTVTLTCRSSTGAVTTSNYANWVQQKPGQAPRGLIGGTNKRAPGTPARFSGSLLGGKAALTLSGVQPEDEAEYYCALWYSNLWVFGGGTKLTVLGRAGGGQVQLVQSGPELIKPGGSVKMSCKASGYTFTSYVMHWVRQKPGQGLEWIGYINPYNDGTKYNEKFKGRATLTSDKSSSTAYMELSSLRSEDSAVYYCARGTYYYGSRVFDYWGQGTTVTVSSASTKGPSVFPLAPSSKSTSGGTAALGCLVKDYFPEPVTVSWNSGALTSGVHTFPAVLQSSGLYSLSSVVTVPSSSLGTQTYICNVNHKPSNTKVDKKVEPKSCPPCGGGGSHHHHHH light: DVVMTQSPSSIPVTLGESVSISCRSSKSLLNSNGNTYLYWFQQRPGQSPQLLIYRMSNLASGVPDRFSGSGSGTDFTLRISGVEPEDVGVYYCMQHLEYPLTFGAGTKLEIKRTVAAPSVFIFPPSDEQLKSGTASVVCLLNNFYPREAKVQWKVDNALQSGNSQESVTEQDSKDSTYSLSSTLTLSKADYEKHKVYACEVTHQGLSSPVTKSFNRGECPPC	2.1	> 2090			0.49
CD19×CD3 bispecific antigen binding protein ITAB2005 (bispecific antibody) EVQLVESGGGLVQPGGSLRLSCAASGFTFNTYAMNWVRQAPGKGLEWVARIRSKYNNYATYYADSVKDRFTISRDDSKNTLYLQMNSLRAEDTAVYYCVRHGNFGNSYVSWFAYWGQGTMVTVSSGGGGSGGGGSGGGGSQAVVTQEPSLTVSPGGTVTLTCRSSTGAVTTSNYANWVQQKPGQAPRGLIGGTNKRAPGTPARFSGSLLGGKAALTLSGVQPEDEAEYYCALWYSNLWVFGGGTKLTVLGRAGGGQVQLVQSGPELIKPGGSVKMSCKASGYTFTSYVMHWVRQKPGQGLEWIGYINPYNDGTKYNEKFKGRATLTSDKSSSTAYMELSSLRSEDSAVYYCARGTYYYGSRVFDYWGQGTTVTVSSASTKGPSVFPLAPSSKSTSGGTAALGCLVKDYFPEPVTVSWNSGALTSGVHTFPAVLQSSGLYSLSSVVTVPSSSLGTQTYICNVNHKPSNTKVDKKVEPKSCPPCGGGGSHHHHHH light: DVVMTQSPSSIPVTLGESVSISCRSSKSLQNVNGNTYLYWFQQRPGQSPQLLIYRMSNLNSGVPDRFSGSGSGTDFTLRISGVEPEDVGVYYCMQHLEYPITFGAGTKLEIKRTVAAPSVFIFPPSDEQLKSGTASVVCLLNNFYPREAKVQWKVDNALQSGNSQESVTEQDSKDSTYSLSSTLTLSKADYEKHKVYACEVTHQGLSSPVTKSFNRGECPPCS	0.3	33.5	≥ 7	≥ 62	
